T1: FLAG Nercc (full-length wild type Nercc1 kinase with FLAG epitope tag) (human, UniProt Q8TD19 1-979)
T1 construct: Expressed in HEK293 cells; also called FLAG Nercc1; FLAG Nercc full length (FL)
T1 sequence: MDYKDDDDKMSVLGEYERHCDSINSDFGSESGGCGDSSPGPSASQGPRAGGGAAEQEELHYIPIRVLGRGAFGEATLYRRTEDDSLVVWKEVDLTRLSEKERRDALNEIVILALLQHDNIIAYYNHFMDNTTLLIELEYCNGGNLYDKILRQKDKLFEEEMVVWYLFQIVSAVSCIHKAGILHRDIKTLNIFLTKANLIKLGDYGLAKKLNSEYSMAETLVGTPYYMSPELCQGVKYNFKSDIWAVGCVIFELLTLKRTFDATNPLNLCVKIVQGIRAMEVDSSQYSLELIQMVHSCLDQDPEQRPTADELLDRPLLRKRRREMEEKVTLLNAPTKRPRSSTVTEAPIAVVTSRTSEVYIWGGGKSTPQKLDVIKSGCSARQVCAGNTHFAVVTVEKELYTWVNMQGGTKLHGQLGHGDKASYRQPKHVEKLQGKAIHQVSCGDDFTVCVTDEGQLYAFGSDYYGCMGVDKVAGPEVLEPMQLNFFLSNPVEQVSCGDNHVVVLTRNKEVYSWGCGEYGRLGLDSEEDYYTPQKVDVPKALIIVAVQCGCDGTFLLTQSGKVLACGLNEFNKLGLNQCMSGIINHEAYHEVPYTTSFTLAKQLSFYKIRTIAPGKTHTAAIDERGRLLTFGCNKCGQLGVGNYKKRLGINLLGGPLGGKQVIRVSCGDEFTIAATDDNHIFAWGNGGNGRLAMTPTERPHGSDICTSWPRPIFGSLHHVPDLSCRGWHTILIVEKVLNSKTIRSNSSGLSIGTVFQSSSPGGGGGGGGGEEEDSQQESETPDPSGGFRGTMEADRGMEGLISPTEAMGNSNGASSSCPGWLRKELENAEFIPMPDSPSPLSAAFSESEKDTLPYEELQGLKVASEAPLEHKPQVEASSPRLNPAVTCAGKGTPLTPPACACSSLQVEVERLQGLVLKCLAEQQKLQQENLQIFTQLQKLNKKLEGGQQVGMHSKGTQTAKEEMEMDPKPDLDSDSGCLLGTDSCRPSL

T2: FLAG Nercc (1-891) (human, UniProt Q8TD19 1-891)
T2 sequence: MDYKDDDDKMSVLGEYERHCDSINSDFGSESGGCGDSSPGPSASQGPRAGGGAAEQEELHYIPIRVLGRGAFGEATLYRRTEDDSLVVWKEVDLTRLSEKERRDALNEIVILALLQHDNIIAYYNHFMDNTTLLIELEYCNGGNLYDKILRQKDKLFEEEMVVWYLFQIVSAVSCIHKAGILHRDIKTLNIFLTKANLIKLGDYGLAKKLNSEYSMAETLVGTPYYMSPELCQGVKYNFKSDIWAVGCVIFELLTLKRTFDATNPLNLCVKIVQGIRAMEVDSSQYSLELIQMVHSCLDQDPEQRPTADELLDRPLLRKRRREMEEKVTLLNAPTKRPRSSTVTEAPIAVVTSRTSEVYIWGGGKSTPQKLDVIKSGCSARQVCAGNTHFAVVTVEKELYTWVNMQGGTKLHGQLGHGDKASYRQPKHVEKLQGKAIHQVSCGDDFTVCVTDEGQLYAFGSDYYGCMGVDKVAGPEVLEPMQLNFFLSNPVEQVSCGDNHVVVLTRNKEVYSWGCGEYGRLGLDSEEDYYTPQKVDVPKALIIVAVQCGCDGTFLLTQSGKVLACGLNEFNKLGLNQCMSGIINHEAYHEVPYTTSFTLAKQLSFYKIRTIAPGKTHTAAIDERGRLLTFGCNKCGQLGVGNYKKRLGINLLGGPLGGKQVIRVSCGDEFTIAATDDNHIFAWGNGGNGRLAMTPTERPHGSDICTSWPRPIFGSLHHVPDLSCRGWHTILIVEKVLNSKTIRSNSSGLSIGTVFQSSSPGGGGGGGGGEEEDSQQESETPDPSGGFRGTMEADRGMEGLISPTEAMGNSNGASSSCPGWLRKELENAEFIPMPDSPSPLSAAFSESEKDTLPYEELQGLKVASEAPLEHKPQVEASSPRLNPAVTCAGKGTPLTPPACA

T3: endogenous Nercc1 kinase of human cells (p120) (human, UniProt Q8TD19 2-979)
T3 construct: Endogenous 120 kDa protein
T3 sequence: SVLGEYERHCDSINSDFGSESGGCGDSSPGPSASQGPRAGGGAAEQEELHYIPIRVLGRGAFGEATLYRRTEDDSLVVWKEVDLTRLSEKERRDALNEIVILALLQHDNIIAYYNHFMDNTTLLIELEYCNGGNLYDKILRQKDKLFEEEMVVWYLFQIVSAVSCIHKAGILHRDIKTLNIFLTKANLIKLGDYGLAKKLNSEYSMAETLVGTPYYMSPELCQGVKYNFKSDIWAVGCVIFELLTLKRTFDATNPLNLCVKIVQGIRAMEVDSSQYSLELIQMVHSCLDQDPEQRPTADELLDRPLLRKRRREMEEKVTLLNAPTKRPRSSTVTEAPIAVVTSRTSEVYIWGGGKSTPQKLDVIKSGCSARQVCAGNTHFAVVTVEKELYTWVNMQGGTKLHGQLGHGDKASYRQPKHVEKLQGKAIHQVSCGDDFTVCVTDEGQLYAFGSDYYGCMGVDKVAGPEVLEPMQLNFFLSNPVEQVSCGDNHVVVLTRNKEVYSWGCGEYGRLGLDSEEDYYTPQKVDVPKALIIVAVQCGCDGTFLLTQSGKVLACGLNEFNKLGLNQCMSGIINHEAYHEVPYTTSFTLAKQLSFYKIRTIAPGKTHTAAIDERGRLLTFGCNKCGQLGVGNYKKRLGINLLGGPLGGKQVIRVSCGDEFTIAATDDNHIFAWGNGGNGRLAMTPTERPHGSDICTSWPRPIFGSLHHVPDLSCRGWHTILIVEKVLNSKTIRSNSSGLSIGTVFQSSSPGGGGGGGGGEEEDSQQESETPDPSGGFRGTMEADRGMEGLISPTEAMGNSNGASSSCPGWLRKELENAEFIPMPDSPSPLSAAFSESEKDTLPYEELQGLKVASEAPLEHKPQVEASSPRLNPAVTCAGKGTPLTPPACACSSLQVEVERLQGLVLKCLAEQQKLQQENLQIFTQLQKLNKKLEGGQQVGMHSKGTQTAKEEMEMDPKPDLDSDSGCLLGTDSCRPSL

B1: Nek6 (tag of the construct not stated) (enzyme)
chain: not shown
B2: FLAG Nek6 (enzyme)
chain: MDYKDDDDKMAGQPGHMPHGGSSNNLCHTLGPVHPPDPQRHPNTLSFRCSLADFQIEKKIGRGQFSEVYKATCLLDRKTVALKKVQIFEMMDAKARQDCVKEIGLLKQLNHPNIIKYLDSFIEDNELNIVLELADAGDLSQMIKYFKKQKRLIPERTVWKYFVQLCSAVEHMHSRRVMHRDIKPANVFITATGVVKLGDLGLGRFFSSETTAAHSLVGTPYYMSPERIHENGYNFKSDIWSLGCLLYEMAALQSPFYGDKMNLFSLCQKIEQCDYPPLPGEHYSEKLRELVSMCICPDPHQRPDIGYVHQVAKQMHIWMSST
notes: Expressed in HEK293 cells; runs as a doublet (phosphorylated and unphosphorylated); also called wild type FLAG Nek6

Assays:
[1] = target: T1, FLAG Nercc (full-length wild type …); assay: binding test of co-expressed proteins; details not given
FLAG Nercc (1-891) = target: T2, FLAG Nercc (1-891); assay: as above
HA wild type Ran = HA wild type Ran (UniProt P62826 1-216); assay: co-expression and co-immunoprecipitation
Excerpt: To address more directly the relative binding in vivo of Nercc to Ran-GDP compared to Ran-GTP, the cytoplasmic wild type Nercc and a nuclear form of full length Nercc (NLS-Nercc) were each co-expressed with wild type Ran or Ran mutants that bind GDP (T24N) or GTP (G19V) exclusively; either Ran or Nercc was immunoprecipitated and probed for the association with the other polypeptide. The full-length wild type Nercc bound co-expressed wild type Ran and Ran T24N to a greater extent than RanG19V.

[2] = target: T3, endogenous Nercc1 kinase of human cells …; assay: anti-FLAG immunoaffinity purification from HEK293 cells; associated band identified by mass spectrometry
Excerpt: Immunoaffinity purification of a FLAG Nek6 polypeptide overexpressed in HEK293 cells results in the recovery of an associated 120 kilodalton (kDa) polypeptide (p120). […] The 120 kDa band was excised, subjected to tryptic digestion in situ, microcapillary reverse-phase HPLC and peptide sequence analysis by electrospray ionization mass spectrometry. Spectra corresponding to multiple peptide sequences were identified on each of three successive open reading frames (ORFs) predicted by […] (Burge et al., J. Mol. Biol., 268: 78-94 (1997)) on the human BAC clone 201F1 (AC007055). […] Further analysis of the genomic sequences including and surrounding all three ORFs, using both […] (Borodovsky et al., Computers and Chem., 17: 123-133 (1993)) or […] yielded predictions containing all three original ORFs (AAD31938, AAD31939 and AAD31940) in polypeptides of around 100 kDa (107 kDa and 91 kDa, respectively).

Binder	binding result [1]	binding result (FLAG Nercc (1-891))	binding result (HA wild type Ran)	binding result [2]
B1	binds	binds	no binding	–
B2	–	–	–	binds

Source: US20060052582A1 (published 2006)
